Measured values taken from publication PMC6171917 (PLoS ONE, 2018).

What was measured:
desmin, full-length = target: T1, desmin, full-length (UniProt P17661 1-470); test: co-sedimentation; FluoBACE on in vitro assembled IFs (25 μg/mL constant); serial dilutions of HEK 293T soluble extract with EGFP-DSP C-terminus (active ≤ 30 nM); 15 min at 4°C (K5/K14 IFs) or 22°C (desmin IFs); 20,000 × g 30 min; fluorescence in supernatant; one site specific binding with Hill slope; apparent Kd; settings: one partner purified
T1 construct: desmin; The desmin fragments are said to be human; also called desmin IFs; source: E. coli, purified following a published protocol [37]; also whole E. coli extract; assembled in vitro into IFs for sedimentation assays

[1] = target: T2, K5/K14 (mixture or heterodimer of full-length cytokeratins 5 and 14) (UniProt P13647 1-590; P02533 1-472); test: as above; settings: one partner purified
T2 construct: cytokeratin 5 (K5), plasmid pET23-K5; cytokeratin 14 (K14), plasmid pET23-K14; Same two recombinant proteins used spotted in 8 M urea (dot blot) and as in vitro assembled filaments (sedimentation assays); also called K5/K14 IFs; K5/K14 filaments; source: mixed for spotting, or heterodimer isolated by anion exchange and assembled into IFs
T2 sequence (looked up) 1: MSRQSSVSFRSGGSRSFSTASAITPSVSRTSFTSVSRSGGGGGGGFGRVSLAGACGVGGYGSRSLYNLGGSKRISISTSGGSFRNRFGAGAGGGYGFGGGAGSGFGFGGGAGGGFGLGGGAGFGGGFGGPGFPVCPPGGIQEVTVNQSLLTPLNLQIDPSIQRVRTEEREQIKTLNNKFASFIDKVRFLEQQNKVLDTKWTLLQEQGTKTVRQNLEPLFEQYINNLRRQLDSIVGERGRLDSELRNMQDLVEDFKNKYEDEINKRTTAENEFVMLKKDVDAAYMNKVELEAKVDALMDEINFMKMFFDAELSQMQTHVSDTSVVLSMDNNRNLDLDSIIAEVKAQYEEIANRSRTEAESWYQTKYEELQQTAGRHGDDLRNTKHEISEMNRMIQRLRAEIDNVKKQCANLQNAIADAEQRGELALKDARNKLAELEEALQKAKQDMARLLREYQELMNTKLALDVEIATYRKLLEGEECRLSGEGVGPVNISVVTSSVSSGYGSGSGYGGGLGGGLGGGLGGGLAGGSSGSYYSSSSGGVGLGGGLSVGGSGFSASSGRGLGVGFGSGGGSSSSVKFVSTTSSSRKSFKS
T2 sequence (looked up) 2: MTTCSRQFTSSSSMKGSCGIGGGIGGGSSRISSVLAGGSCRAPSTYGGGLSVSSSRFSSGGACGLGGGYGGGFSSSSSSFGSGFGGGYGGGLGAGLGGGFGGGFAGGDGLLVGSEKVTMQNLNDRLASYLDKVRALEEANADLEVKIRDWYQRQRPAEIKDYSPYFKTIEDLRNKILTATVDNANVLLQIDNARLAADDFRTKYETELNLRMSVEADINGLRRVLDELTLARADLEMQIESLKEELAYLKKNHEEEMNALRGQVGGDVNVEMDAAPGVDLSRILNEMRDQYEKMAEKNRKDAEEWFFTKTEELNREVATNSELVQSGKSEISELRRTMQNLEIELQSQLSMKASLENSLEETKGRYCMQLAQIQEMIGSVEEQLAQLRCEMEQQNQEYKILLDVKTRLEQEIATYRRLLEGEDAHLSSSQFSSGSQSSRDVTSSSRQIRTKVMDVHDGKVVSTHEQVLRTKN

[2] = target: T3, K5 (cytokeratin 5), purified (UniProt P13647 1-590); test: co-sedimentation; K5 and K14 mixed 1.1:1, heterodimer isolated on anion exchanger in 8 M urea, dialyzed against 0.7 mM sodium phosphate pH 7.5, assembly with 20 mM KCl at 37°C 30 min; 20,000 × g 4°C 30 min, pellet and supernatant by SDS-PAGE; settings: both partners purified
T3 construct: cytokeratin 5 (K5), plasmid pET23-K5; source: E. coli Rosetta pLysS, inclusion bodies, purified (cation exchange, Superdex 200 in 6 M urea)
T3 sequence (looked up): T2 sequence (looked up) 1

T1 sequence (P17661 whole entry, the tested form may be a part): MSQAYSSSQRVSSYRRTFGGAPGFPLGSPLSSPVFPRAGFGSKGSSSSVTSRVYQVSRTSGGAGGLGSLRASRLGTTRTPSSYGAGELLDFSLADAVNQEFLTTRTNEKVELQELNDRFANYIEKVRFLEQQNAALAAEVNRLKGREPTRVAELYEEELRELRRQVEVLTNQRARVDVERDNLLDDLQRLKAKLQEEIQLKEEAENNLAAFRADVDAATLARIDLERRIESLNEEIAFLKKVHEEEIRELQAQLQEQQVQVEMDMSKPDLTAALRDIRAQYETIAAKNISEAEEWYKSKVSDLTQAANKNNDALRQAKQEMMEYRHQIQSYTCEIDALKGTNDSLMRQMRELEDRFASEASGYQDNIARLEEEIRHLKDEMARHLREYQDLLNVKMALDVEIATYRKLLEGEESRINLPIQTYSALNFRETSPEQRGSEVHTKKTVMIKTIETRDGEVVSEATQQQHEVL

B1: EGFP-DSP C-terminus (C-terminus of desmoplakin tagged at the N-terminus with EGFP) (domain or fragment, UniProt P15924-1 2194-2871, looked up)
chain: PHTGLLLLSVQKRSMSFQGIRQPVTVTELVDSGILRPSTVNELESGQISYDEVGERIKDFLQGSSCIAGIYNETTKQKLGIYEAMKIGLVRPGTALELLEAQAATGFIVDPVSNLRLPVEEAYKRGLVGIEFKEKLLSAERAVTGYNDPETGNIISLFQAMNKELIEKGHGIRLLEAQIATGGIIDPKESHRLPVDIAYKRGYFNEELSEILSDPSDDTKGFFDPNTEENLTYLQLKERCIKDEETGLCLLPLKEKKKQVQTSQKNTLRKRRVVIVDPETNKEMSVQEAYKKGLIDYETFKELCEQECEWEEITITGSDGSTRVVLVDRKTGSQYDIQDAIDKGLVDRKFFDQYRSGSLSLTQFADMISLKNGVGTSSSMGSGVSDDVFSSSRHESVSKISTISSVRNLTIRSSSFSDTLEESSPIAAIFDTENLEKISITEGIERGIVDSITGQRLLEAQACTGGIIHPTTGQKLSLQDAVSQGVIDQDMATRLKPAQKAFIGFEGVKGKKKMSAAEAVKEKWLPYEAGQRFLEFQYLTGGLVDPEVHGRISTEEAIRKGFIDGRAAQRLQDTSSYAKILTCPKTKLKISYKDAINRSMVEDITGLRLLEAASVSSKGLPSPYNMSSAPGSRSGSRSGSRSGSRSGSRSGSRRGGFDATGNSSYSYSYSFSSSSIGH
notes: construct previously described [8]; KD curves use the active concentration; source: HEK 293T, transfected (calcium phosphate), soluble fraction of cell lysate; not shown: EGFP, N-terminal, kept
For B1, which Kd (desmin, full-length) is on record?
The Kd was 18 nM.

And the Kd [1]?
Its Kd is 10 nM.

B2: K14 (cytokeratin 14), purified (natural protein, UniProt P02533 1-472, looked up)
chain: T2 sequence (looked up) 2
notes: cytokeratin 14 (K14), plasmid pET23-K14; source: E. coli Rosetta, inclusion bodies, purified (anion exchange, gel filtration in 6 M urea)
Does B2 bind [2]?
Result: binds
